The values that follow come from patent publication US20040106545A1 (MCGILL UNIVERSITY, published 2004).

Read-outs that look alike come from different tables or passages of the source. Positions of bridges follow the written chain, without caps; N, C: chain ends.

What all share (test): cell-based or functional assay
Test [1] addresses T1, chick N-cadherin expressed on transfected 3T3 cells (chick, UniProt P10288 165-912).
T1 sequence (looked up): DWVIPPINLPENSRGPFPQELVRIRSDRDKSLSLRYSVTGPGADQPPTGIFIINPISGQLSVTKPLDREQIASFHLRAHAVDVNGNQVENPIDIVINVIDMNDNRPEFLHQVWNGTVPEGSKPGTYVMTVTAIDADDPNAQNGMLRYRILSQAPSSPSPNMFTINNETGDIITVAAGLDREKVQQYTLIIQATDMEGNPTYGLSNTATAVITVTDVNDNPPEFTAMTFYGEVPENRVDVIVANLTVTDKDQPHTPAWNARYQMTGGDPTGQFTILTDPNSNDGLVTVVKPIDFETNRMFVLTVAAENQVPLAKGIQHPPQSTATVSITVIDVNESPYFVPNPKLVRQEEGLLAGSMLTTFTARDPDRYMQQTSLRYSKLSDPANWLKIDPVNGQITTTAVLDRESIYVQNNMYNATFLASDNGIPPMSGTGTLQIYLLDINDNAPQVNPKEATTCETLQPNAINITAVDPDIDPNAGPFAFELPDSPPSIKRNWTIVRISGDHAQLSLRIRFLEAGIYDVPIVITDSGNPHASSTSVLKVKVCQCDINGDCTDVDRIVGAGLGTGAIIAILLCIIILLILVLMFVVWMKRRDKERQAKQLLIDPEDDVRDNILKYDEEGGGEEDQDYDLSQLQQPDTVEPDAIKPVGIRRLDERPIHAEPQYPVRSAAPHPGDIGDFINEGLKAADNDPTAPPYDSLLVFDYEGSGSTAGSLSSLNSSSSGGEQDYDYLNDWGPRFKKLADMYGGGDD

Test [2] deals with T1, chick N-cadherin expressed on …. The source holds these as a separate data set.
Test [3] deals with human L1 expressed on transfected 3T3 cells (human, UniProt P32004 20-1257).
In test [4] the target is T2, E-cadherin on Madin Darby canine kidney (MDCK) cells (canine (MDCK cells), UniProt F1PAA9 157-885).
T2 sequence (looked up): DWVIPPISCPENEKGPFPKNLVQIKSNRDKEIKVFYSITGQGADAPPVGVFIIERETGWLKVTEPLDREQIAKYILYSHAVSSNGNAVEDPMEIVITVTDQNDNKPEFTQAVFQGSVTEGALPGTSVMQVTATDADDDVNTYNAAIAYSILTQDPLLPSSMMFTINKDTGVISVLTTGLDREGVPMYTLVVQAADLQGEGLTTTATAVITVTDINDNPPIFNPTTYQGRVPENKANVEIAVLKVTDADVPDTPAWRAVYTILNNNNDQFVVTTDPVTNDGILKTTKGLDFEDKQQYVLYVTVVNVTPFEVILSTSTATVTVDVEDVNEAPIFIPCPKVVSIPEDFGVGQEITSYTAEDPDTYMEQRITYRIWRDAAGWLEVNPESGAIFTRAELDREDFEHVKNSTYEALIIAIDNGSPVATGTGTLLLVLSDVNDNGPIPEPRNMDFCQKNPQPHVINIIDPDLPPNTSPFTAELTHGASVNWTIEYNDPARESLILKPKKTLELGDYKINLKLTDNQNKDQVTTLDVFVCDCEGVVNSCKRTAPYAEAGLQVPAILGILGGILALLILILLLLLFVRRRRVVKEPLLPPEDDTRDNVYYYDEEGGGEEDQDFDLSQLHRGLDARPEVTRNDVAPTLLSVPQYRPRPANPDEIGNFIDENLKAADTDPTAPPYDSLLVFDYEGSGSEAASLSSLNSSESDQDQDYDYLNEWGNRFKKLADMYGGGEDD

The target of test [5] is T1, chick N-cadherin expressed on …. The source holds these as a separate data set.
The target is the same in test [6]. This is another data set of the same source.
Test [7] deals with T2, E-cadherin on Madin Darby canine kidney …. The source holds these as a separate data set.
Test [8] addresses N-cadherin expressed on transfected 3T3 cells (Examples 2 and 21).
Test [9] addresses T1, chick N-cadherin expressed on …. The source holds these as a separate data set.
Test [10] has the same target. The source holds these as a separate data set.

Chain of human L1 expressed on transfected 3T3 cells (P32004 20-1257): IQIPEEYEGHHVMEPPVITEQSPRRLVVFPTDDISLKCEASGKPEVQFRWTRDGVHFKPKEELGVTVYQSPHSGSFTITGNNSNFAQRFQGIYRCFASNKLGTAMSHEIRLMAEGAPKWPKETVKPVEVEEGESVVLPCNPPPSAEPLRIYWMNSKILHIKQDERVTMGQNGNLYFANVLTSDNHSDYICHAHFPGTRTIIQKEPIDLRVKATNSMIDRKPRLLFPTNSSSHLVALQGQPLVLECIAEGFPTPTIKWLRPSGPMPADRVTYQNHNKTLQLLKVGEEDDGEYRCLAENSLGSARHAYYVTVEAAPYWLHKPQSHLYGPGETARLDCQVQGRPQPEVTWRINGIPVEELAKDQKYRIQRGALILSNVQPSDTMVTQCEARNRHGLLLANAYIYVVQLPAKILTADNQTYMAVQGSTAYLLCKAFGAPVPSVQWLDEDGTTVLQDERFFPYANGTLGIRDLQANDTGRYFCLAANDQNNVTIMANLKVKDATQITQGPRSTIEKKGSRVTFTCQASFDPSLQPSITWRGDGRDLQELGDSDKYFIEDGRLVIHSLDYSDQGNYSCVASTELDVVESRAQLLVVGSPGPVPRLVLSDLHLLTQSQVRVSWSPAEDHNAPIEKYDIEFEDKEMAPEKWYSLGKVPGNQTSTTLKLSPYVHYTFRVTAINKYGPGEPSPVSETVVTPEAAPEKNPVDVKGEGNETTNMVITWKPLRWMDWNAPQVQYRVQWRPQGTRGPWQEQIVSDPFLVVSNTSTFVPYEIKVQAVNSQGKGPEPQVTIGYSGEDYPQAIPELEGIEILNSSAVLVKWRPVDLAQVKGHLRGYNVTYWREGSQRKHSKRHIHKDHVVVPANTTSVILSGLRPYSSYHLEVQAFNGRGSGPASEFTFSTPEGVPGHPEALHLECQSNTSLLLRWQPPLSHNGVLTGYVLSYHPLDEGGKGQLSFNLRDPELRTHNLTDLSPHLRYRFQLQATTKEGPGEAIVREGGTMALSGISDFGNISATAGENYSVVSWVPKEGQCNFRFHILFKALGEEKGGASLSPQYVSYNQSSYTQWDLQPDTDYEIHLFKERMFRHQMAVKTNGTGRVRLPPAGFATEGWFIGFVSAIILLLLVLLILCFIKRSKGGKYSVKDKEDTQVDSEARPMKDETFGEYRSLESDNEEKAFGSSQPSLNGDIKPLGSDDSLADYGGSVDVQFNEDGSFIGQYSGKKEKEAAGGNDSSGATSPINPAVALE

For the molecule Ac-CHAVDINC-NH2 (disulfide 1-8 (inferred)) [N-Ac-CHAVDINC-NH2], in test [1], the “% inhibition of neurite outgrowth (peptide 125 µg/mL)” value is 62% and the “EC50 for inhibition of neurite outgrowth” value was 70 µM. In addition, the “% Inhibition of N-Cadherin Response (peptide 125 µg/ml)” value (shortened to “% Inhibition of N-Cadherin Response”) in [2] amounted to 62%. For the same molecule, the “% Inhibition of L1 Response (peptide 125 µg/ml)” value (“% Inhibition of L1 Response” below) in [3] was 1.7%.
For Ac-CHAVCSS-NH2 (disulfide 1-5 (inferred)) [N-Ac-CHAVC-SS-NH2], in [4], the “EC50, decrease of electrical resistance across MDCK cell monolayer” value (from here on “EC50, decrease”) amounted to 430 µM. For the same molecule, the “Percent Inhibition of N-cadherin dependent neurite outgrowth (peptide 250 µg/ml)” value (“Percent Inhibition” for short) in [5] stood at 37.8%.
On to Ac-CSHAVC-NH2 (disulfide 1-6 (inferred)) [N-Ac-CSHAVC-NH2], for which the “% inhibition of N-cadherin dependent neurite outgrowth (peptide 250 µg/mL)” value (shortened to “% inhibition … (peptide 250 µg/mL)”) in test [6] came to 11%. In addition, the “EC50, decrease” value in test [7] came to 20 µM. For the same molecule, the “% Inhibition of neurite outgrowth, 250 µg/mL (rat neurons)” value (“% Inhibition … (rat neurons)” for short) in [8] came out at 0%.
Ac-CHAVCS-NH2 (disulfide 1-5 (inferred)) [N-Ac-CHAVC-S-NH2]: the “EC50, decrease” value in [4] came to 490 µM. Further, in [5], the “Percent Inhibition” value came to 6.9%.
As for H-CAHAVDIC-NH2 (disulfide 1-8 (inferred)) [H-CAHAVDIC-NH2], the “% inhibition … (peptide 250 µg/mL)” value in test [6] is -3.7%. Further, the “Percent Inhibition” value in test [9] was -3.7%. The “% Inhibition … (rat neurons)” value in test [8] was found to be 0%.

B1: N-Ac-YCHAVC-NH2 (peptide)
peptide: Ac-YCHAVC-NH2
modifications: disulfide 2-6
SMILES: CC(=O)N[C@@H](Cc1ccc(O)cc1)C(=O)N[C@H]1CSSC[C@@H](C(N)=O)NC(=O)[C@H](C(C)C)NC(=O)[C@H](C)NC(=O)[C@H](Cc2c[nH]cn2)NC1=O
For the molecule B1, the “Percent Inhibition” value in test [5] was 10.6%.

B2: N-Ac-S-CHAVC-NH2 (peptide)
peptide: Ac-SCHAVC-NH2
modifications: disulfide 2-6
SMILES: CC(=O)N[C@@H](CO)C(=O)N[C@H]1CSSC[C@@H](C(N)=O)NC(=O)[C@H](C(C)C)NC(=O)[C@H](C)NC(=O)[C@H](Cc2c[nH]cn2)NC1=O
On to B2, for which the “EC50, decrease” value in [4] is 490 µM.
As for Ac-CHAVYC-NH2 (disulfide 1-6 (inferred)) [N-Ac-CHAVYC-NH2], the “EC50 for inhibition of neurite outgrowth” value in test [10] turned out to be 80 µM. For the same molecule, in test [1], the “% inhibition of neurite outgrowth (peptide 125 µg/mL)” value was 64.9% and the “EC50 for inhibition of neurite outgrowth” value is 128 µM.
In the case of Ac-CHAVCT-NH2 (disulfide 1-5 (inferred)) [N-Ac-CHAVC-T-NH2], the “EC50, decrease” value in test [4] turned out to be 480 µM. In addition, the “Percent Inhibition” value in [5] was 23.7%.
Regarding Ac-CHAVCE-NH2 (disulfide 1-5 (inferred)) [N-Ac-CHAVC-E-NH2], in test [5], the “Percent Inhibition” value is 32.5%.
Consider H-CHAVC-NH2 (disulfide 1-5 (inferred)) [H-CHAVC-NH2], for which the “% inhibition … (peptide 250 µg/mL)” value in test [6] was 1.7%. The “Percent Inhibition” value in test [9] is 1.7%. Moreover, in test [8], the “% Inhibition … (rat neurons)” value was found to be 0%.
Ac-CHAVCD-NH2 (disulfide 1-5 (inferred)) [N-Ac-CHAVC-D-NH2]: the “EC50, decrease” value in [4] worked out at 470 µM. For the same molecule, the “Percent Inhibition” value in test [5] was 3.3%.
As for Ac-CHAVPC-NH2 (disulfide 1-6 (inferred)) [N-Ac-CHAVPC-NH2], in test [1], the “% inhibition of neurite outgrowth (peptide 125 µg/mL)” value is 58% and the “EC50 for inhibition of neurite outgrowth” value came out at 185 µM.
For Ac-CHAVCY-NH2 (disulfide 1-5 (inferred)) [N-Ac-CHAVC-Y-NH2], the “EC50 for inhibition of neurite outgrowth” value in test [10] turned out to be 120 µM. The “EC50, decrease” value in [4] worked out at 210 µM.
Consider Ac-CFSHAVC-NH2 (disulfide 1-7 (inferred)) [N-Ac-CFSHAVC-NH2], for which the “EC50, decrease” value in [7] stood at 22 µM.
Regarding Ac-CHAVC-NH2 (disulfide 1-5 (inferred)) [N-Ac-CHAVC-NH2], the “EC50 for inhibition of the N-cadherin response (neurite outgrowth)” value in [10] worked out at 220 µM. Besides, the “% Inhibition of N-Cadherin Response” value in test [2] came to 33.2%. For the same molecule, the “% Inhibition of L1 Response” value in test [3] stood at 41.6%. The “% inhibition … (peptide 250 µg/mL)” value in [6] was determined as 68.2%. Also, the “Percent Inhibition” value in [9] was determined as 68.2%. Besides, in [7], the “EC50, decrease” value was determined as 270 µM. In [8], the “% Inhibition … (rat neurons)” value was determined as 65%.
On to Ac-CHAVDIC-NH2 (disulfide 1-7 (inferred)) [N-Ac-CHAVDIC-NH2], for which, in test [1], the “% inhibition of neurite outgrowth (peptide 125 µg/mL)” value worked out at 88.3% and the “EC50 for inhibition of neurite outgrowth” value is 60 µM. In addition, in test [2], the “% Inhibition of N-Cadherin Response” value was determined as 88.3%. Besides, the “% Inhibition of L1 Response” value in test [3] came to 6%.

B3: N-Ac-S-CHAVC-S-NH2 (peptide)
peptide: Ac-SCHAVCS-NH2
modifications: disulfide 2-6
SMILES: CC(=O)N[C@@H](CO)C(=O)N[C@H]1CSSC[C@@H](C(=O)N[C@@H](CO)C(N)=O)NC(=O)[C@H](C(C)C)NC(=O)[C@H](C)NC(=O)[C@H](Cc2c[nH]cn2)NC1=O
As for B3, the “Percent Inhibition” value in test [5] is 15.7%.

B4: H-CAHAVDC-NH2 (peptide)
peptide: H-CAHAVDC-NH2
modifications: disulfide 1-7
SMILES: CC(C)[C@@H]1NC(=O)[C@H](C)NC(=O)[C@H](Cc2c[nH]cn2)NC(=O)[C@H](C)NC(=O)[C@@H](N)CSSC[C@@H](C(N)=O)NC(=O)[C@H](CC(=O)O)NC1=O
Consider B4, for which, in test [6], the “% inhibition … (peptide 250 µg/mL)” value stood at 1.3%. Further, in [9], the “Percent Inhibition” value came out at 1.3%. Moreover, the “% Inhibition … (rat neurons)” value in [8] amounted to 0%.
Take Ac-CHAVDC-NH2 (disulfide 1-6 (inferred)) [N-Ac-CHAVDC-NH2]: in [1], the “% inhibition of neurite outgrowth (peptide 125 µg/mL)” value was found to be 77.1% and the “EC50 for inhibition of neurite outgrowth” value was 93 µM. Also, the “% Inhibition of N-Cadherin Response” value in test [2] is 77.1%. The “% Inhibition of L1 Response” value in test [3] was 9.6%. In test [6], the “% inhibition … (peptide 250 µg/mL)” value was 88.4%. The “% Inhibition … (rat neurons)” value in [8] amounted to 88%.
